# According to publication PMC8673750 (Cell Reports, 2021):
# T1: Peptide #288 15-mer (SARS-CoV-2, Wuhan-Hu-1)
# T1 chain: KEELDKYFKNHTSPD
# T2: Peptide #289 11-mer (SARS-CoV-2, Wuhan-Hu-1)
# T2 chain: DKYFKNHTSPD
# Legend:
# Peptide #288 15-mer = target: T1, Peptide #288 15-mer; assay: ELISA
# Peptide #289 11-mer = target: T2, Peptide #289 11-mer; assay: SPR
# [1] = target: SARS-CoV-2 S glycoprotein, original Wuhan-Hu-1 strain (WT), full-length, on 293T cells (SARS-CoV-2, UniProt P0DTC2); assay: flow cytometry on cells
Binder,binding result (Peptide #288 15-mer),Kd (Peptide #289 11-mer) [nM],binding result [1]
"CV3-25 IgG (antibody, V domains shown) VH: EVQLVESGAEVKKPGESLKISCKGSGYTFTRYWIGWVRQMPGKGLEWMGIIYPGDSDTRYSPSFQGHVTISADKSISTAYLQWNSLKASDTAMYYCARLPQYCSNGVCQRWFDPWGQGTLVTVSS VL: EIVLTQSPSSVSASVGDRVTITCRASQGISSWLAWYQQKPGKAPKLLIYAASSLQSGVPSRFSGSGSGTDFTLTISSLQPEDFATYYCQQGNSFPYTFGQGTNLEIK",binds,~1000,
"CV3-1 IgG (antibody, V domains shown) VH: EVQLVESGPEVKKPGTSVKVPCKASGFTFTSSAVQWVRQARGQRLEWIGWIVVGSGNTNYAQKFQERVTITRDMSTSTAYMELSSLRSEDTAVYYCAAPSCSGGRCYDGFDIWGQGTMVTVSS VL: not shown",,,binds
